The values that follow come from patent CN117088975A.

In the assay the target is ALB蛋白(天然提取). Briefly: AMC sensor, antibody immobilised at 10 ug/ml, ALB in gradient dilution in PBST.

What is called Kd is the constant that tells how readily two partners part at equilibrium. The term koff denotes the first-order rate constant of dissociation. Low values mean a long-lived complex, high ones a short-lived complex. A word on the kon: it is a measure of how fast the partners come together. Read a low kon as slower complex formation. 对照 (antibody): the Kd worked out at 32.4 nM, the koff was 0.000483 s⁻¹ and the kon was determined as 14900 M⁻¹ s⁻¹.
